Reference: patent publication US20140242093A1, “METHODS AND COMPOSITIONS FOR MODULATING THE INNATE IMMUNE RESPONSE AND/OR MYOGENESIS IN A MAMMALIAN SUBJECT” (FRED HUTCHINSON CANCER RESEARCH CENTER, priority 2011, published 2014)
Entries after “also recorded” stand apart in the source; their conditions may differ.

Assays:
[1] = tested on: cultured human skeletal muscle cells; settings: cited from earlier work
[2] = tested on: 31-bp oligonucleotides containing the putative DUX4 binding site; test: Electromobility shift assay (EMSA); parameters: species or system human; settings: in vitro translated protein; TRIM48, CSF1R, THE1D oligos
Protocol: EMSA was performed with ^32P-labeled 31-bp oligonucleotides from endogenous genomic sequences containing the putative DUX4 binding site as probes (sequences below; only forward shown). Radiolabeled probes were incubated with in vitro translated protein generated from pCS2-DUX4-fl or pCS2-DUX4-s^2 vectors using the TNT SP6 Coupled Wheat Germ Extract System (Promega) according to manufacturer's instructions. To obtain supershift of protein-DNA complexes, 0.1 μg of E14-3 anti-DUX4 rabbit monoclonal antibody was added to the mixtures. For competition experiments, excess unlabeled probes of either wild-type or mutant sequences were included in the binding reaction. The gels were prepared and run as previously described (Knoepfler et al., 1999).

[3] = tested on: Cultured control human myoblasts; test: Beta-defensin 3 and innate immune response, real-time qPCR of IFIH1, ISG20, DEFB103; assay type: cell-based; settings: RT-qPCR, similar titers, FIG. 7A
Protocol: Cultured control human myoblasts were grown to 80% confluence and infected with equivalent titers of lenti-GFP, lenti-DUX4-s and lenti-DUX4-fl in growth media supplemented with 8 μg/mL polybrene. Expression of innate immune responsive genes including IFIH1 (MDA5), ISG20 and DEFB103 were assessed by real-time qPCR as previously described at 24 hours (primer sequences below). For conditioned media, cells were infected with lenti-DUX4-fl for 12 hours, thoroughly washed 3 times with PBS and switched to fresh growth media to condition for 12 hours. Control conditioned media was produced from cells not infected with any lentivirus. Myoblasts were infected with lenti-GFP in either control conditioned media, lenti-DUX4-fl conditioned media or regular growth media supplemented with 1 μM human β-defensin 3 (Peptides International, Louisville, Ky.). Expression of innate immune responsive genes were examined after 24 hours.

[4] = tested on: FSHD cultured myoblasts; test: Dominant negative inhibition of DUX4-fl by lenti-DUX4-s in FSHD muscle cells; assay type: cell-based, human; settings: lentiviral expression in FSHD muscle cells, 48 hours of differentiation
Protocol: Simultaneously, cells were transduced by lentivirus carrying DUX4-s or GFP along with 8 μg/mL polybrene. Cells were washed and changed to plain differentiation media after 24 hours. Cells were harvested for RNA after 48 hours of differentiation. Untransduced cells were used to assess baseline expression of DUX4-fl target genes.

[5] = tested on: human rhabdomyosarcoma cell line RD; test: Luciferase reporter assay with DUX4 binding sites; assay type: cell-based
Protocol: The DUX4 binding site in the ZSCAN4 pGL3-promoter construct was either reversed in orientation (as shown in FIG. 3D) or moved downstream of the reporter gene (as shown in FIG. 3E). […] Transfections and luciferase assays were done as in main methods. Data are given as the averages±SD of triplicates.
Transient DNA transfections of RD cells were performed using SuperFect (Qiagen) according to manufacturer specifications. Briefly, 3×10^5 cells were seeded per 35 mm plate the day prior to transfection. […] Cells were lysed 24 h post-transfection in Passive Lysis Buffer (Promega). Luciferase activities were quantified using reagents from the Dual-Luciferase Reporter Assay System (Promega) following manufacturer's instructions. Light emission was measured using BioTek Synergy2 luminometer. Luciferase data are given as the averages±SD of at least triplicates.

[6] = tested on: Human myoblasts; test: Expression array of the innate immune response to lentiviral infection versus uninfected cells; assay type: cell-based
Protocol: RNA was harvested from the lenti-viral infected cells and uninfected control cells at 24 hours after infection.

B1: DUX4-s: short splice form of DUX4 (SEQ ID NO:112), keeps the double-homeobox domains, lacks the C-terminal activation domain (protein, listed as Homo sapiens)
chain: MALPTPSDSTLPAEARGRGRRRRLVWTPSQSEALRACFERNPYPGIATRERLAQAIGIPEPRVQIWFQNERSRQLRQHRRESRPWPGRRGPPEGRRKRTAVTGSQTALLLRAFEKDRFPGIAAREELARETGLPESRIQIWFQNRRARHPGQGGRAPAQV
For B1, the “toxicity of forced over-expression” value [1] is given as “not toxic”, the “binding to DUX4 core motifs” value [2] is given as “specifically binds the same core binding site as DUX4-fl” and the “induction of the innate immune response in myoblasts” value [3] is given as “induced the innate immune response”. The “endogenous expression of DUX4 target genes (PRAMEF1, RFPL2, MBD3L2)” value [4] was “inhibited the endogenous expression of the target genes; also recorded: blocks expression of these three DUX4-fl target genes”, the “luciferase expression from pGL3-promoter reporter with 31 bp DUX4 binding site” value ([5]; TRIM48 or ZSCAN4 site, co-transfection in RD cells) was “did not activate expression” and the “effect on DUX4-fl reporter activation when co-expressed” value ([5]; ZSCAN4 1.9 kb reporter) was “interfered with the activity of DUX4-fl”. For the same molecule, the “DEFB103A and DEFB103B transcripts” value ([6]; expression array) was “not”, the “CCL2 expression ratio vs GFP (.fc)” value ([6]; gene CCL2 NM_002982.3, vs lenti-GFP, 24 hours after infection) was 0.44 log2 fold change and the “CCL2 expression ratio vs NoLenti (.fc)” value ([6]; gene CCL2 NM_002982.3, vs uninfected, 24 hours after infection) was 2.82 log2 fold change. The “CCL5 expression ratio vs GFP (.fc)” value ([6]; gene CCL5 NM_002985.2, vs lenti-GFP, 24 hours after infection) was 1.89 log2 fold change, the “CCL5 expression ratio vs NoLenti (.fc)” value ([6]; gene CCL5 NM_002985.2, vs uninfected, 24 hours after infection) was 4.33 log2 fold change and the “CXCL1 expression ratio vs GFP (.fc)” value ([6]; gene CXCL1 NM_001511.1, vs lenti-GFP, 24 hours after infection) was 0.20 log2 fold change. The “CXCL1 expression ratio vs NoLenti (.fc)” value ([6]; gene CXCL1 NM_001511.1, vs uninfected, 24 hours after infection) was 3.36 log2 fold change, the “CXCL2 expression ratio vs GFP (.fc)” value ([6]; gene CXCL2 NM_002089.3, vs lenti-GFP, 24 hours after infection) was 0.00 log2 fold change and the “CXCL2 expression ratio vs NoLenti (.fc)” value ([6]; gene CXCL2 NM_002089.3, vs uninfected, 24 hours after infection) was 1.09 log2 fold change. The “CXCL5 expression ratio vs GFP (.fc)” value ([6]; gene CXCL5 NM_002994.3, vs lenti-GFP, 24 hours after infection) was 0.82 log2 fold change, the “CXCL5 expression ratio vs NoLenti (.fc)” value ([6]; gene CXCL5 NM_002994.3, vs uninfected, 24 hours after infection) was 2.60 log2 fold change and the “CXCL6 expression ratio vs GFP (.fc)” value ([6]; gene CXCL6 NM_002993.2, vs lenti-GFP, 24 hours after infection) was 0.17 log2 fold change. For the same molecule, the “CXCL6 expression ratio vs NoLenti (.fc)” value ([6]; gene CXCL6 NM_002993.2, vs uninfected, 24 hours after infection) was 1.77 log2 fold change, the “DDX58 expression ratio vs GFP (.fc)” value ([6]; gene DDX58 NM_014314.3, vs lenti-GFP, 24 hours after infection) was 0.02 log2 fold change and the “DDX58 expression ratio vs NoLenti (.fc)” value ([6]; gene DDX58 NM_014314.3, vs uninfected, 24 hours after infection) was 2.14 log2 fold change. The “DHX58 (LGP2) expression ratio vs GFP (.fc)” value ([6]; gene DHX58 NM_024119.2, vs lenti-GFP, 24 hours after infection) was 0.70 log2 fold change, the “DHX58 (LGP2) expression ratio vs NoLenti (.fc)” value ([6]; gene DHX58 NM_024119.2, vs uninfected, 24 hours after infection) was 3.04 log2 fold change and the “IFI6 expression ratio vs GFP (.fc)” value ([6]; gene IFI6 NM_022872.2, vs lenti-GFP, 24 hours after infection) was −0.04 log2 fold change. The “IFI6 expression ratio vs NoLenti (.fc)” value ([6]; gene IFI6 NM_022872.2, vs uninfected, 24 hours after infection) was 5.05 log2 fold change, the “IFI16 expression ratio vs GFP (.fc)” value ([6]; gene IFI16 NM_005531.1, vs lenti-GFP, 24 hours after infection) was 0.68 log2 fold change and the “IFI16 expression ratio vs NoLenti (.fc)” value ([6]; gene IFI16 NM_005531.1, vs uninfected, 24 hours after infection) was 2.52 log2 fold change. For the same molecule, the “IFI27 expression ratio vs GFP (.fc)” value ([6]; gene IFI27 NM_005532.3, vs lenti-GFP, 24 hours after infection) was 0.27 log2 fold change, the “IFI27 expression ratio vs NoLenti (.fc)” value ([6]; gene IFI27 NM_005532.3, vs uninfected, 24 hours after infection) was 7.60 log2 fold change and the “IFI35 expression ratio vs GFP (.fc)” value ([6]; gene IFI35 NM_005533.2, vs lenti-GFP, 24 hours after infection) was 0.92 log2 fold change. For the same molecule, the “IFI35 expression ratio vs NoLenti (.fc)” value ([6]; gene IFI35 NM_005533.2, vs uninfected, 24 hours after infection) was 4.33 log2 fold change, the “IFI44L expression ratio vs GFP (.fc)” value ([6]; gene IFI44L NM_006820.1, vs lenti-GFP, 24 hours after infection) was 0.47 log2 fold change and the “IFI44L expression ratio vs NoLenti (.fc)” value ([6]; gene IFI44L NM_006820.1, vs uninfected, 24 hours after infection) was 6.22 log2 fold change. The “IFI44 expression ratio vs GFP (.fc)” value ([6]; gene IFI44 NM_006417.3, vs lenti-GFP, 24 hours after infection) was 0.29 log2 fold change, the “IFI44 expression ratio vs NoLenti (.fc)” value ([6]; gene IFI44 NM_006417.3, vs uninfected, 24 hours after infection) was 3.59 log2 fold change and the “IFIH1 (MDA5) expression ratio vs GFP (.fc)” value ([6]; gene IFIH1 NM_022168.2, vs lenti-GFP, 24 hours after infection) was 1.66 log2 fold change. For the same molecule, the “IFIH1 (MDA5) expression ratio vs NoLenti (.fc)” value ([6]; gene IFIH1 NM_022168.2, vs uninfected, 24 hours after infection) was 5.34 log2 fold change, the “IFIT1 expression ratio vs GFP (.fc)” value ([6]; gene IFIT1 NM_001548.3, vs lenti-GFP, 24 hours after infection) was 0.72 log2 fold change and the “IFIT1 expression ratio vs NoLenti (.fc)” value ([6]; gene IFIT1 NM_001548.3, vs uninfected, 24 hours after infection) was 5.50 log2 fold change. The “IFIT3 expression ratio vs GFP (.fc)” value ([6]; gene IFIT3 NM_001549.2, vs lenti-GFP, 24 hours after infection) was 1.81 log2 fold change, the “IFIT3 expression ratio vs NoLenti (.fc)” value ([6]; gene IFIT3 NM_001549.2, vs uninfected, 24 hours after infection) was 5.49 log2 fold change and the “IFIT5 expression ratio vs GFP (.fc)” value ([6]; gene IFIT5 NM_012420.1, vs lenti-GFP, 24 hours after infection) was −0.28 log2 fold change. The “IFIT5 expression ratio vs NoLenti (.fc)” value ([6]; gene IFIT5 NM_012420.1, vs uninfected, 24 hours after infection) was 0.81 log2 fold change, the “IFITM1 expression ratio vs GFP (.fc)” value ([6]; gene IFITM1 NM_003641.3, vs lenti-GFP, 24 hours after infection) was 0.34 log2 fold change and the “IFITM1 expression ratio vs NoLenti (.fc)” value ([6]; gene IFITM1 NM_003641.3, vs uninfected, 24 hours after infection) was 7.08 log2 fold change. The “IFITM2 expression ratio vs GFP (.fc)” value ([6]; gene IFITM2 NM_006435.2, vs lenti-GFP, 24 hours after infection) was 0.01 log2 fold change.
